The values below come from PMC3103402.

CBF-A (hnRNP A/B), p37 isoform, sequence (Q99020 whole entry, canonical isoform): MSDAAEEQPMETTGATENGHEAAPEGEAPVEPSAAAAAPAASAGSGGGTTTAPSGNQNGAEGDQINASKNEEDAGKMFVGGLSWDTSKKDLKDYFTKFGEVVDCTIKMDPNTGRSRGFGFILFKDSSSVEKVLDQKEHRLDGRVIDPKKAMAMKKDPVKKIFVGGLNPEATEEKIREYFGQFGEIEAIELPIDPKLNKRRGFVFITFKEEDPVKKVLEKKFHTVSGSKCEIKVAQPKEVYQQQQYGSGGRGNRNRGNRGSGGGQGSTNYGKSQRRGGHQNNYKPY

The data set has as its target CBF-A (hnRNP A/B), p37 isoform (UniProt Q99020 1-285). In words: EMSA.
As for GCUGAGGAGGAGGAGAUCAUU (ssRNA) [Arc wtRTS], the binding result was “binds”.

As for AACGCCAGUGAGCCAGGAACU (ssRNA) [CaMKIIα wtRTS], the binding result is given as “binds”.

For the molecule AUGGACCCAAUGAGAACUAGU (ssRNA) [BDNF wtRTS], the binding result is recorded as “binds”.
